Reference: article PMC3239198
Where two headings read alike, the source gives them in different places.

Columns and labels:
[1] = molecular target: His-tagged TetR (Tet repressor) (UniProt P04483); assay: EMSA
[2] = molecular target: His-tagged TetR (Tet repressor) (UniProt P04483); assay: competition EMSA
[3] = molecular target: His-tagged TetR (Tet repressor) (UniProt P04483); assay: competition EMSA; remark: listed apart in the source

Sequence of His-tagged TetR (Tet repressor) (P04483 whole entry): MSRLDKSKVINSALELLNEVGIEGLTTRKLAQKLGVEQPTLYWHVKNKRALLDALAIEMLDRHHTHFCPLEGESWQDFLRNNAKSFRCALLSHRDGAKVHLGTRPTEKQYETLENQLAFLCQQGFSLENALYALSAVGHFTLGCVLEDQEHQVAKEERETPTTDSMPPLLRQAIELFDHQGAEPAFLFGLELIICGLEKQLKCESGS

Sequence	Kd [1] [nM]	Ki [2] [nM]	Ki [3] [nM]
TTGACACTCTATCATTGATAGAGTTAT (double strand) [tetO dsDNA (ODA68/ODA69)]	60		
GGGAGAUACGCGUAUCAAGCAGCAUGUUAUGGGUCAUCACAGACCAGAGAAAAGCUUGAUACGCGAAAGGAG [TetR aptamer 12-1R (pDA1), active]		76	58
